Assay [1] addresses T1, human FGFR3b expressed with a C-terminal murine Fc tag (hFGFR3b.mFc) (human).
T1 construct: called dimeric; also called REGN3153; dimeric human FGFR3b
T1 chain: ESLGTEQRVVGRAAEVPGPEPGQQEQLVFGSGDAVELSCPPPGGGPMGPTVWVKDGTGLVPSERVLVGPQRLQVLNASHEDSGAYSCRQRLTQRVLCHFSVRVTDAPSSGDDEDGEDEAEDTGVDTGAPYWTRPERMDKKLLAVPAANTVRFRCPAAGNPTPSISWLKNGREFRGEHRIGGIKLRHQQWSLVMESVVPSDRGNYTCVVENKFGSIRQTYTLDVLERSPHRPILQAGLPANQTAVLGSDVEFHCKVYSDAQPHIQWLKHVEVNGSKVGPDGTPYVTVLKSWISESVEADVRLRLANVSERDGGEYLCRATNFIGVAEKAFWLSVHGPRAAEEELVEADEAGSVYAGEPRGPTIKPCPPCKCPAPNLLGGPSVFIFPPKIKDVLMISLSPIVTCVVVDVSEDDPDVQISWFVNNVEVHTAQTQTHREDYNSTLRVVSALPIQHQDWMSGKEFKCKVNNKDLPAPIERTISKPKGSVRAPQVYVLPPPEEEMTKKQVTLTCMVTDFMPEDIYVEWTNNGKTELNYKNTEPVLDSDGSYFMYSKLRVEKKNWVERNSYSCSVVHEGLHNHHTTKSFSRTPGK
In words: SPR Biacore, mAb captured on anti-hFc, 25C. How it is done:
(§1) The CM5 Biacore sensor surface was derivatized by amine coupling with a monoclonal mouse anti-human Fc monoclonal antibody (REGN2567). […] Antibody-reagent association was monitored for 5 minutes while dissociation in HBS-EP running buffer was monitored for 10 minutes. At the end of each cycle, the anti-FGFR3 antibody capture surface was regenerated using a 10 sec injection of 20 mM phosphoric acid. All binding kinetics experiments were performed at 25° C.
(§2) The specific SPR-Biacore sensorgrams were obtained by a double referencing procedure. The double referencing was performed by first subtracting the signal of each injection over a reference surface (anti-hFc) from the signal over the experimental surface (anti-hFc-captured anti-FGFR3 antibodies) thereby removing contributions from refractive index changes. In addition, running buffer injections were performed to allow subtraction of the signal changes resulting from the dissociation of captured antibodies from the coupled anti-hFc surface. Kinetic association (kₐ) and dissociation (kd) rate constants were determined by fitting the real-time sensorgrams to a 1:1 binding model using Scrubber v2.0c curve fitting software.
(In general: SPR reads the build-up and loss of mass on a sensor chip optically.)

In assay [2] the target is T2, cynomolgus FGFR3b expressed with a C-terminal myc-myc-hexahistidine tag (mfFGFR3b.mmH) (cynomolgus).
T2 construct: also called REGN3521; mf FGFR3b ecto (R357G)(E23-G377;R357G).mmH
T2 chain: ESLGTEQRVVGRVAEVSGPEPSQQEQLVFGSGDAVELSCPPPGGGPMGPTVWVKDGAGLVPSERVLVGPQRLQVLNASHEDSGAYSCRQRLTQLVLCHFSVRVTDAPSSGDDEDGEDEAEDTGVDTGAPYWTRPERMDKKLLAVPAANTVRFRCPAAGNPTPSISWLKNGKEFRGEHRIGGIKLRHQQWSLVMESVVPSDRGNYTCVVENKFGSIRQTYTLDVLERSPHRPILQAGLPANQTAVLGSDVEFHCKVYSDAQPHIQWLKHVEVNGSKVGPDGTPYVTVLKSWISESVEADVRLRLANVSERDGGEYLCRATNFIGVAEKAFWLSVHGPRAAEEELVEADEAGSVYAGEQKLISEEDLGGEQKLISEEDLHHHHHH
In words: SPR Biacore, mAb captured on anti-hFc, 25C. How it is done:
as §1, §2

Assay [3] deals with T3, human FGFR3c expressed with a C-terminal myc-myc-hexahistidine tag (hFGFR3c.mmH) (human, UniProt P22607 23-375).
T3 construct: also called REGN3155; monomeric human FGFR3c
Put plainly: SPR Biacore, mAb captured on anti-hFc, 25C. How it is done: as §1, §2

The target of assay [4] is T4, human FGFR3b expressed with a C-terminal myc-myc-hexahistidine tag (hFGFR3b.mmH) (human).
T4 construct: also called REGN3152; monomeric human FGFR3b
T4 chain: T2 chain with V13A, S17P, S22G, A57T, L94R, K171R
In words: SPR Biacore, mAb captured on anti-hFc, 25C. How it is done: as §1, §2

The target in assay [5] is T5, murine FGFR3b expressed with a C-terminal myc-myc-hexahistidine tag (mFGFR3b.mmH) (murine).
T5 construct: also called REGN3215; monomeric murine FGFR3b
T5 chain: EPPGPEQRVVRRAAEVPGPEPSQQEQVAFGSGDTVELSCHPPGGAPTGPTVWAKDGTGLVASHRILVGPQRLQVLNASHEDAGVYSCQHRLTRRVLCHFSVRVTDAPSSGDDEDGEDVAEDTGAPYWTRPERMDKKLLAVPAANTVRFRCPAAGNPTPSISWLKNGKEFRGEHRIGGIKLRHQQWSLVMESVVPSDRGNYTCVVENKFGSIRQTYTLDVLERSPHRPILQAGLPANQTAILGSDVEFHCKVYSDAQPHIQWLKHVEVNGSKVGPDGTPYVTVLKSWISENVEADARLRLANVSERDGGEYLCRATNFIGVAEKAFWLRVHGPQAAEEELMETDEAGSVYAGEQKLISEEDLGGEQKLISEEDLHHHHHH
In words: SPR Biacore, mAb captured on anti-hFc, 25C. How it is done: as §1, §2

Assay [6] concerns the target T1, human FGFR3b expressed with a …. Put plainly: competition ELISA: 4 nM hFGFR3b-mFc binding to plate-coated hFGF acidic. As to the method: The fixed concentration of hFGFR3b or hFGFR3c proteins was selected to be near the concentration that generated 50% of the maximal binding (EC₅₀ value) to plate-adhered hFGF acidic or hFGF basic protein. […] The plates were then developed using TMB substrate solution (BD Biosciences) according to the manufacturer's recommended procedure and absorbance at 450 nm was measured on a Victor X5 plate reader.
Binding data were analyzed using a sigmoidal (four-parameter logistic) dose-response model using GraphPad Prism software. […] Percent blocking of FGFR3 antibody at a given concentration was calculated based on the formula shown below.
The ability of anti-FGFR3 antibodies to block human FGFR3b binding to hFGF acidic protein or hFGFR3c binding to hFGF acidic or hFGF basic proteins was evaluated using a sandwich ELISA-based blocking assay.
(An ELISA detects its analyte on a solid surface through an enzyme-linked reagent.)

Assay [7] addresses T3, human FGFR3c expressed with a …. In words: SPR Biacore, mAb captured on anti-hFc, 25C; row marked NB. As to the method: as §1, §2

Positions count from the first letter of the chain named.

B1: H4H30095P2 (antibody, human IgG4 S228P, kappa, V domains shown)
VH: QVQLVQSGVEVKKPGASVKVSCKASGYTFKFYGISWVRQAPGQGLEWMGWISVYNGKTKYAQKLQGRVTMTTDTSTSTAYMELRSLRSDDTAVYFCARDGDYESSGYPFDYWGQGTLVTVSS
VL: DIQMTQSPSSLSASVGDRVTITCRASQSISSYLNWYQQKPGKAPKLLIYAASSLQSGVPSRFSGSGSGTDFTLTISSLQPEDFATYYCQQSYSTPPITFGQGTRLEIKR
As a reminder, the Kd is the concentration at which binding is half-saturated. A high value points to a looser complex. A word on the koff: it is a measure of how fast the partners let go of each other. Higher therefore signals a short-lived complex. Usually kon stands for a measure of how fast the partners come together. A word on the t½: it is the time needed for the level to fall by half in the phase considered. On to B1, for which, in assay [1], the “30 nM hFGFR3b.mFc Bind (RU)” value was 405 RU, binding was put at a Kd of 0.114 nM, the koff amounted to 9.88e-05 s⁻¹ and the kon was 867000 M⁻¹ s⁻¹. Moreover, in assay [1], the “t½” value came out at 117 min. In assay [2], the “90 nM mfFGFR3b.mmH Bind (RU)” value turned out to be 206 RU; the affinity, expressed as Kd, was 8.29 nM; the koff stood at 0.00437 s⁻¹; the association rate constant (kon) amounted to 527000 M⁻¹ s⁻¹. The “t½” value in assay [2] was 2.6 min. Also, in assay [3], the “90 nM hFGFR3c.mmH Bind (RU)” value is 222 RU; the affinity, expressed as Kd, was 7.88 nM; the koff was 0.00454 s⁻¹; the on-rate constant (kon) was 575000 M⁻¹ s⁻¹. For the same molecule, the “t½” value in assay [3] is 2.5 min. Also, in assay [4], the “90 nM hFGFR3b.mmH Bind (RU)” value was determined as 239 RU, the dissociation constant Kd was found to be 7.16 nM, the dissociation rate constant (koff) worked out at 0.005 s⁻¹ and the kon is 698000 M⁻¹ s⁻¹. The “t½” value in assay [4] worked out at 2.3 min.

B2: H4H30093P2 (antibody, human IgG4 S228P, kappa, V domains shown)
VH: QVQLVESGGGLVKPGGSLRLSCAASGFTFNDYPMSWIRQAPGKGLEWVSYITSSSGSTIYYADSVKGRFTISRDNAKNSLYLQMNSLRAEDTAVYYCAREVVVATIGGYYGMDVWGQGTTVTVSS
VL: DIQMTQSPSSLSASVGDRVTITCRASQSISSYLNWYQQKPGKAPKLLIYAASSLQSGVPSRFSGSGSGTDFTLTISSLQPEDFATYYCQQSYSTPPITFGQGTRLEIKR
notes: HCVR 82, LCVR 90
For orientation: IC50 means the point on the concentration scale where inhibition reaches its midpoint. Regarding B2, in assay [1], the “30 nM hFGFR3b.mFc Bind (RU)” value is 317 RU, binding was characterised by a dissociation constant (Kd) of 0.0265 nM, the koff is 1.55e-05 s⁻¹ and the kon is 585000 M⁻¹ s⁻¹. Moreover, in assay [1], the “t½” value was 745 min. In addition, the binding result in assay [2] is “no binding (tested: 90 nM)”. Besides, in assay [5], the “90 nM mFGFR3b.mmH Bind (RU)” value came out at 11.2 RU, the Kd worked out at 70.9 nM, the dissociation rate constant (koff) came out at 0.00967 s⁻¹ and the on-rate (kon) turned out to be 136000 M⁻¹ s⁻¹. The “t½” value in assay [5] is 1.2 min. Further, in assay [3], the “90 nM hFGFR3c.mmH Bind (RU)” value is 182 RU, the dissociation constant (Kd) was found to be 9.2 nM, the off-rate (koff) was found to be 0.00334 s⁻¹ and the on-rate constant (kon) worked out at 363000 M⁻¹ s⁻¹. For the same molecule, the “t½” value in assay [3] stood at 3.5 min. In assay [4], the “90 nM hFGFR3b.mmH Bind (RU)” value was 217 RU, binding was characterised by a dissociation constant (Kd) of 5.14 nM, the koff came to 0.00209 s⁻¹ and the kon turned out to be 406000 M⁻¹ s⁻¹. For the same molecule, the “t½” value in assay [4] stood at 5.5 min. Also, in assay [6], the “% Blocking at 200 nM mAb” value came out at 91% and the IC50 was 2.5 nM.

B3: H4H30105P2 (antibody, human IgG4 S228P, kappa, V domains shown)
VH: EVQLVQSGAEVKKPGESLKISCKGSGYSFTSYWIAWVRQMPGKGLEWMGIIYPGDSDTRYSPSFQGQVTMSADKSIRIAYLQWSSLKASDTAMYYCARLDYSGSWFDYWGQGTLVTVSS
VL: not shown
Turning to B3, in assay [2], the “90 nM mfFGFR3b.mmH Bind (RU)” value stood at 67.8 RU, the equilibrium dissociation constant (Kd) worked out at 14.7 nM, the koff was 0.00802 s⁻¹ and the on-rate (kon) was 547000 M⁻¹ s⁻¹. Moreover, in assay [2], the “t½” value was found to be 1.4 min. For the same molecule, in assay [5], the “90 nM mFGFR3b.mmH Bind (RU)” value was 8.3 RU, the koff is 0.00122 s⁻¹, the on-rate (kon) is 149000 M⁻¹ s⁻¹ and the “t½” value is 9.5 min. In assay [3], the “90 nM hFGFR3c.mmH Bind (RU)” value was 131 RU, the koff turned out to be 0.00652 s⁻¹, the kon was found to be 387000 M⁻¹ s⁻¹ and the “t½” value turned out to be 1.8 min. Besides, in assay [4], the “90 nM hFGFR3b.mmH Bind (RU)” value was determined as 158 RU, the koff amounted to 0.00511 s⁻¹, the kon was 438000 M⁻¹ s⁻¹ and the “t½” value stood at 2.3 min.

B4: H4H30076P (antibody, human IgG4 S228P, kappa, V domains shown)
VH: EVQLVESGGGLVQPGGSLRLSCAASGFTVSSNYMSWVRQAPGKGLEWVSIIYSGGHTYYSDSVKGRFTISRHNSKNTLYLQMNSLRGGDTAVYYCARGYTSGWYGFDFWGQGTLVTVSS
VL: DIQMTQSPSSVSASVGDRVTITCRASQGISTWLAWYQQKPGKAPKLLIYAASSLQSGVPSRFSGTGSGTDFTLTISSLQPEDFATYYCQQTNSFPWTFGQGTKVEIKR
As for B4, in assay [1], the “30 nM hFGFR3b.mFc Bind (RU)” value turned out to be 204 RU, the Kd is no more than 0.0246 nM, the dissociation rate constant (koff) is no more than 1e-05 s⁻¹ and the kon turned out to be 407000 M⁻¹ s⁻¹. Also, the “t½” value in assay [1] was no less than 1160 min. Moreover, in assay [2], the “90 nM mfFGFR3b.mmH Bind (RU)” value amounted to 180 RU, the Kd is 0.165 nM, the koff was determined as 3.3e-05 s⁻¹ and the kon came to 200000 M⁻¹ s⁻¹. Moreover, in assay [2], the “t½” value worked out at 350 min. In addition, in assay [5], the “90 nM mFGFR3b.mmH Bind (RU)” value is 201 RU, the equilibrium dissociation constant (Kd) is 0.141 nM, the dissociation rate constant (koff) was 3.61e-05 s⁻¹ and the association rate constant (kon) turned out to be 256000 M⁻¹ s⁻¹. The “t½” value in assay [5] worked out at 320 min. In assay [4], the “90 nM hFGFR3b.mmH Bind (RU)” value came to 198 RU, the Kd is 0.186 nM, the koff came to 4.39e-05 s⁻¹ and the kon amounted to 236000 M⁻¹ s⁻¹. For the same molecule, in assay [4], the “t½” value turned out to be 263 min. Besides, the “90 nM hFGFR3c.mmH Bind (RU)” value in assay [7] is -9.7 RU.

The record behind these values is patent publication US20240158515A1 (Regeneron, published 2024).
